# B1: 278 (protein)
# chain: LDNGLARTPTMGWLHWERFMCNLDCQEEPDSCISEKLFMEMAERMVSEGWKDAGYEYLCIDDCWMAPQRDSEGRLQADPQRFPHGIRQLANYVHSKGLKLGIYADVGNKTCAGFPGSFGYYDIDAQTFADWGVDLLKFDGCYCDSLENLADGYKHMSLALNRTGRSIVYSCEWPLYMWPFQKPNYTEIRQYCNHWRNFADIDDSWASIKSILDWTSRNQERIVDVAGPGGWNDPDMLVIGNFGLSWDQQVTQMALWAIMAAPLFMSNDLRHISPQAKALLQDKDVIAINQDPLGKQGYQLRQGDNFEVWERPLSGDAWAVAMINRQEIGGPRSYTIAVASLGKGVACNPGCFITQLLPVKRKLGFYDWDSRLRSHINPTGTVLLQLENTMQMSLKDLL
# modifications: Synthetic Polypeptide sequence of Variant No. 278 of mature Human GLA
# B2: 282 (protein)
# chain: LDNGLARTPTMGWLHWERFMCNLDCQEEPDSCISEKLFMEMAERMVSEGWKDAGYEYLCIDDCWMAPQRDSEGRLQADPQRFPHGIRQLANYVHSKGLKLGIYADVGNKTCAGFPGSFGYYDIDAQTFADWGVDLLKFDGCYCDSLENLADGYKHMSLALNRTGRSIVYSCEWPLYMWPFQKPNYTEIRQYCNHWRNFADIDDSWASIKSILDWTSFNQERIVDVAGPGGWNDPDMLVIGNFGLSWDQQVTQMALWAIMAAPLFMSNDLRHISPQAKALLQDKDVIAINQDPLGKQGYQLRQGDNFEVWERPLSGLAWAVAMINRQEIGGPRSYTIPVASLGKGVACNPACFITQLLPVKRKLGFYEWTSRLRSHINPTGTVLLQLENTMQMSLKDLL
# modifications: Synthetic Polypeptide sequence of Variant No. 282 of mature Human GLA
# B3: 279 (protein)
# chain: LDNGLARTPTMGWLHWERFMCNLDCQEEPDSCISEKLFMEMAERMVSEGWKDAGYEYLCIDDCWMAPQRDSEGRLQADPQRFPHGIRQLANYVHSKGLKLGIYADVGNKTCAGFPGSFGYYDIDAQTFADWGVDLLKFDGCYCDSLENLADGYKHMSLALNRTGRSIVYSCEWPLYMWPFQKPNYTEIRQYCNHWRNFADIDDSWASIKSILDWTSRNQERIVDVAGPGGWNDPDMLVIGNFGLSWDQQVTQMALWAIMAAPLFMSNDLRHISPQAKALLQDKDVIAINQDPLGKQGYQLRKGDNFEVWERPLSGLAWAVAMINRQEIGGPRSYTIAVASLGKGVACNPGCFITQLLPVKRKLGFYEWTSRLRSHINPTGTVLLQLENTMQMSLKDLL
# modifications: Synthetic Polypeptide sequence of Variant No. 279 of mature Human GLA
# B4: 283 (protein)
# chain: LDNGLARTPTMGWLHWERFMCNLDCQEEPDSCISEKLFMEMAERMVSEGWKDAGYEYLCIDDCWMAPQRDSEGRLQADPQRFPHGIRQLANYVHSKGLKLGIYADVGNKTCAGFPGSFGYYDIDAQTFADWGVDLLKFDGCYCDSLENLADGYKHMSLALNRTGRSIVYSCEWPLYMWPFQKPNYTEIRQYCNHWRNFADIDDSWASIKSILDWTSFNQERIVDVAGPGGWNDPDMLVIGNFGLSWDQQVTQMALWAIMAAPLFMSNDLRHISPQAKALLQDKDVIAINQDPLGKQGYQLRKGDNFEVWERPLSGLAWAVAMINRQEIGGPRSYTIPVASLGKGVACNPGCFITQLLPVKRKLGFYDWDSRLRSHINPTGTVLLQLENTMQMSLKDLL
# modifications: Synthetic Polypeptide sequence of Variant No. 283 of mature Human GLA
# B5: 280 (protein)
# chain: LDNGLARTPTMGWLHWERFMCNLDCQEEPDSCISEKLFMEMAERMVSEGWKDAGYEYLCIDDCWMAPQRDSEGRLQADPQRFPHGIRQLANYVHSKGLKLGIYADVGNKTCAGFPGSFGYYDIDAQTFADWGVDLLKFDGCYCDSLENLADGYKHMSLALNRTGRSIVYSCEWPLYMWPFQKPNYTEIRQYCNHWRNFADIDDSWASIKSILDWTSRNQERIVDVAGPGGWNDPDMLVIGNFGLSWNQQVTQMALWAIMAAPLFMSNDLRHISPQAKALLQDKDVIAINQDPLGKQGYQLRKGDNFEVWERPLSGLAWAVAMINRQEIGGPRSYTIAVASLGKGVACNPACFITQLLPVKRKLGFYDWDSRLRSHINPTGTVLLQLENTMQMSLKDLL
# modifications: Synthetic Polypeptide sequence of Variant No. 280 of mature Human GLA
# B6: 284 (protein)
# chain: LDNGLARTPTMGWLHWERFMCNLDCQEEPDSCISEKLFMEMAERMVSEGWKDAGYEYLCIDDCWMAPQRDSEGRLQADPQRFPHGIRQLANYVHSKGLKLGIYADVGNKTCAGFPGSFGYYDIDAQTFADWGVDLLKFDGCYCDSLENLADGYKHMSLALNRTGRSIVYSCEWPLYMWPFQKPNYTEIRQYCNHWRNFADIDDSWASIKSILDWTSFNQETIVDVAGPGGWNDPDMLVIGNFGLSWDQQVTQMALWAIMAAPLFMSNDLRHISPQAKALLQDKDVIAINQDPLGKQGYQLRQGDNFEVWERPLSGLAWAVAIINRQEIGGPRSYTIAVASLGDGVACNPACFITQLLPVKRKLGLYEWTSRLRSHVNPTGTVLLQLENTMQMSLKDLL
# modifications: Synthetic Polypeptide sequence of Variant No. 284 of mature Human GLA
# B7: 281 (protein)
# chain: LDNGLARTPTMGWLHWERFMCNLDCQEEPDSCISEKLFMEMAERMVSEGWKDAGYEYLCIDDCWMAPQRDSEGRLQADPQRFPHGIRQLANYVHSKGLKLGIYADVGNKTCAGFPGSFGYYDIDAQTFADWGVDLLKFDGCYCDSLENLADGYKHMSLALNRTGRSIVYSCEWPLYMWPFQKPNYTEIRQYCNHWRNFADIDDSWASVKSILDWTSFNQEKIVDVAGPGGWNDPDMLVIGNFGLSWNQQVTQMALWAIMAAPLFMSNDLRHISPQAKALLQDKDVIAINQDPLGKQGYQLRQGDNFEVWERPLSGLAWAVAVINRQEIGGPRSYTIAVASLGDGVACNPACFITQLLPVKRKLGLYEWTSRLKSHINPTGTVLLQLENTMQMSLKDLL
# modifications: Synthetic Polypeptide sequence of Variant No. 281 of mature Human GLA
# Experiments:
# Format in all cases: biochemical
# [1] = HTP-analysis of supernatants pretreated with bovine serum (MUGal hydrolysis); conditions: activity of the variant/activity of Rd2BB (SEQ ID NO: 10), yeast culture supernatant
# How it was run: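 Yeast INVSc1 culture supernatants containing secreted GLA variants were mixed with bovine serum (20:80) and held 1 h at 37° C. Serum-treated samples then reacted with MUGal (4 mM stock) in citrate/McIlvaine buffer (pH 4.3/4.8) for 180 min at 37° C., were quenched with sodium carbonate, and read by fluorescence (Ex 355, Em 448 nm).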
# [2] = HTP-analysis of yeast culture supernatants, no challenge (MUGal hydrolysis); conditions: activity of the variant/activity of Rd2BB (SEQ ID NO: 10), yeast culture supernatant
# How it was run: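 Activity read as 4-methylumbelliferyl α-D-galactopyranoside hydrolysis: fluorescence (355/448 nm) after sodium carbonate stop, following 30-180 min at 37° C with 2 mM MUGal stock at pH 4.6–4.8. Enzyme source is unchallenged culture supernatant of INVSc1 yeast expressing GLA variants, grown 66-84 h at 30° C.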
# [3] = HTP-analysis of supernatants pretreated with base (MUGal hydrolysis); conditions: challenge at pH 7.6; activity of the variant/activity of Rd2BB (SEQ ID NO: 10); yeast culture supernatant
# How it was run: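 Supernatants from INVSc1 yeast expressing GLA variants (SD-Ura, 66-84 h, 30° C) were mixed with McIlvaine buffer pH 7.0-8.2 or 200 mM sodium bicarbonate pH 9.1-9.7 and held 1-18 h at 37° C. Residual activity was then measured on MUGal at pH 4.8/4.3, 37° C, 30-180 min, by fluorescence (Ex 355/Em 448 nm).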
# [4] = HTP-analysis of supernatants pretreated with acid (MUGal hydrolysis); conditions: challenge at pH 4.2; activity of the variant/activity of Rd2BB (SEQ ID NO: 10); yeast culture supernatant
# How it was run: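 MUGal hydrolysis was tracked by fluorescence (Ex 355 nm, Em 448 nm) after a 30-180 min reaction at 37° C. in pH 4.8 McIlvaine/citrate buffer, stopped with 1 M sodium carbonate. Beforehand, yeast (INVSc1) culture supernatants carrying GLA variants were held 1-3 h at 37° C. in acidic McIlvaine buffer, pH 3.3-4.3.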
Molecule,Relative Activity of GLA Variants After Challenge with Serum [1],Relative Activity of GLA Variants After No Challenge (NC) [2],Relative Activity of GLA Variants After Challenge at pH 7.6 [3],Relative Activity of GLA Variants After Challenge at pH 4.2 [4]
B1,+++ (+++ = >2.5 relative activity over Rd2BB (SEQ ID NO: 10)),+++ (+++ = >2.5 relative activity over Rd2BB (SEQ ID NO: 10)),+++ (+++ = >2.5 relative activity over Rd2BB (SEQ ID NO: 10)),+++ (+++ = >2.5 relative activity over Rd2BB (SEQ ID NO: 10))
B2,+ (+ = 0.5 to 1.5 relative activity over Rd2BB (SEQ ID NO: 10)),+ (+ = 0.5 to 1.5 relative activity over Rd2BB (SEQ ID NO: 10)),+ (+ = 0.5 to 1.5 relative activity over Rd2BB (SEQ ID NO: 10)),+ (+ = 0.5 to 1.5 relative activity over Rd2BB (SEQ ID NO: 10))
B3,+++ (+++ = >2.5 relative activity over Rd2BB (SEQ ID NO: 10)),++ (++ = 1.5 to 2.5 relative activity over Rd2BB (SEQ ID NO: 10)),+++ (+++ = >2.5 relative activity over Rd2BB (SEQ ID NO: 10)),+++ (+++ = >2.5 relative activity over Rd2BB (SEQ ID NO: 10))
B4,+++ (+++ = >2.5 relative activity over Rd2BB (SEQ ID NO: 10)),+++ (+++ = >2.5 relative activity over Rd2BB (SEQ ID NO: 10)),+++ (+++ = >2.5 relative activity over Rd2BB (SEQ ID NO: 10)),+++ (+++ = >2.5 relative activity over Rd2BB (SEQ ID NO: 10))
B5,+ (+ = 0.5 to 1.5 relative activity over Rd2BB (SEQ ID NO: 10)),+ (+ = 0.5 to 1.5 relative activity over Rd2BB (SEQ ID NO: 10)),+ (+ = 0.5 to 1.5 relative activity over Rd2BB (SEQ ID NO: 10)),+ (+ = 0.5 to 1.5 relative activity over Rd2BB (SEQ ID NO: 10))
B6,+++ (+++ = >2.5 relative activity over Rd2BB (SEQ ID NO: 10)),+++ (+++ = >2.5 relative activity over Rd2BB (SEQ ID NO: 10)),+++ (+++ = >2.5 relative activity over Rd2BB (SEQ ID NO: 10)),+++ (+++ = >2.5 relative activity over Rd2BB (SEQ ID NO: 10))
B7,+ (+ = 0.5 to 1.5 relative activity over Rd2BB (SEQ ID NO: 10)),+ (+ = 0.5 to 1.5 relative activity over Rd2BB (SEQ ID NO: 10)),+ (+ = 0.5 to 1.5 relative activity over Rd2BB (SEQ ID NO: 10)),+ (+ = 0.5 to 1.5 relative activity over Rd2BB (SEQ ID NO: 10))

# Reference: patent US11278600B2, “Human alpha-galactosidase variants” (Codexis, Inc., priority 2014, dated 2022)
